# Measured values published in publication PMC5551578 (The Journal of Experimental Medicine, 2017).
# Read-outs that look alike come from different tables or passages of the source.
# B1: H5-Ab3 (antibody, V domains shown)
# VH: EVQLVESGGGLVKPGGSLRLSCAASGFTFSTYSMNWVRHAPGKGLEWVSSISSGSNYIYYADSVKGRFTISRDNAKNSLYLQMNNLRAEDTAVYHCARDRGESSYYWFDPWGQGTLVTVSS
# VL: QSALTQPASVSGSPGQSITISCTGTSSDVGAYDYVSWYRQHPGEAPKLLIYDVARRPSGVSFRFSGSKSGNAASLTISGLQAEDEADYFCSSYAGTTIWVFGGGTKLTVL
# B2: TT-Ab11 (antibody, V domains shown)
# VH: QVQLQESGPGLVKPSQTLSLTCNVSDGSISSDGYYWSWLRQHPGKGPEWIGYIHHSGHPYYNPSLKSRVTMSIDTSKNQFALKLSSVTAVDTAMYYCARVRGTGYYPGTLDLWGQGTLVTVSS
# VL: EIVLTQSPGTLSLSPGERATLSCRASQSVSSSYFAWYQQIPGQAPRLLIYGTSNRATGIPDRFSGSGSGKDFTLTISRLEPEDFAVYYCQQFGSSPLTFGGGTKVEIK
# B3: H5-Ab2 (antibody, V domains shown)
# VH: EVQLVQSGAEVKKPGSSVKVSCRSSGGPFRSNAISWVRQAPGQGLEWMGGIIAVFGTVEYAQKFQGRVTITADDSRSTVYMELRSLRSDDTAFYYCASAHGYHNYGSRGYFVSWGQGTLVTVSS
# VL: DIVMTQSPGTLSLSPGERATLSCRASQSVSSNYLAWYQQKLGQPPRLLIYGASSRATGIPDRFSGSGSGTDFTLTISRLEPEDYAVYYCQQYGSSPHTFGQGTKVEIK
# B4: TT-Ab5 (antibody, V domains shown)
# VH: EVQLVQSGAEVKKPGSSVKVSCTAPGVTFSTYPIDWVRQAPGQGLEWMGGIIPISGSPKYAQKFQGRVAITADGFTNTAYLELSSLRSEDTAVYYCATRESGYDGQFDYWGQGTLVTVSS
# VL: QSVLTQPPSASGTPGQRVTISCTGSTSNIGNNYVYWYQQVPGTAPTLLIYRSNQRPSGVPDRFSGSKSGTSASLAISGLRSEDEADYYCATWDDSLGVVFGGGTKLTVL
# B5: TT-Ab8 (antibody, V domains shown)
# VH: EVQLVESGGGLVQPGGSLRLSCAASGFTFSYYDMNWVRQAPGKGLEWLSYISGSGGVIYYADSVKGRFTISRDNAKNSLFLQMNSLRAEDTAVYYCARDPSPGRLGFFDYWGQGTLVTVSS
# VL: EIVMTQSPAILSVSPGERATLSCRASQRVSSNLAWYQQKPGQAPRLLIYGASTRATGIPARFSGSGSGTEFTLTISSLQSEDCAIYYCQQYNNWPRTFGQGTKVEIK
# B6: TT-Ab13 (antibody, V domains shown)
# VH: EVQLVESGAEVKKPGESLRISCKGSGYSFTTYWIGWVRQMPGKGLEWIGIIYAGDSDTRYSPSFQGQVTMPVDKSITTAYLQWSSLKASDTAMYYCARQGDPSSYLTSGFEFWGQGTLVTVSS
# VL: DIQMTQSPSTLSASVGDGVTITCRASQSISRWLAWYQQKPGKAPKLLIYQASRLESGVPSRFSGSGSGTEFTLSISSLQPDDFATYYCHQYNSYSQTFGQGTKVEIK
# B7: H5-Ab6 (antibody, V domains shown)
# VH: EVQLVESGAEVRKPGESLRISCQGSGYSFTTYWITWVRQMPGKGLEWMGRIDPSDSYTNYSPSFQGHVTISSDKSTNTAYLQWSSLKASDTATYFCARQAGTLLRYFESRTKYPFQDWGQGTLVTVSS
# VL: EIVLTQSPGTLSLSPGERATLSCRASQSVSGGYLAWYQQRPGQAPRLLISGASTRATGIPDRFSGSGSGTDFTLTISGLEPEDFAVYYCQQYGDSPAYTFGQGTKVEIK
# B8: TT-Ab6 (antibody, V domains shown)
# VH: EVQLLESGGGLVRPGGSLRLSCAASGFSFNDHYMTWVRQAPGKGLEWVSYISDGRVTTNYAASVKGRFIISRDNTKKTVYLQMNSLTAEDTAVYYCARVGPWPVMKGAFDSWGQGTLVTVSS
# VL: DIQMTQSPGTLSLSPGERATISCRASQSVSSDYLVWYQQKPGQAPRLLIYGASRRATGIPDRFSGSGSGTDFTLTISRLEPEDFAVYYCQQYGSSPLFAFGPGTKVEIK
# B9: H5-Ab4 (antibody, V domains shown)
# VH: EVQLVESGGGAVQPGRSLRLSCAVSGFTFSSYGMNWVRQAPGKGLEWVAVISYDGSNTYYADSVKGRFTISRDDSKNTLFLQMNSLRADDTAVYYCAKDFQLRLLRYFDWLSSPFDHWGQGTLVTVSS
# VL: DIQLTQSPGTLSLSPGERATLSCRASQSIRSNFLAWYQQTPGQGPRLLIYGASSRATGIPDRFSGSGSGTDFTLTISGLEPEDFAVYYCQQYASSPQTFGQGTKVEIK
# B10: TT-Ab2 (antibody, V domains shown)
# VH: EVQLVESGAEVKKPGASVKLSCKASGYTVTSDYMHWVRQAPGQGLEWMGIINPSDGSTNYPRKFQGRVTMTRDTSTRTVYMEVSSLRSEDTAVYYCAGGGQRFTFDYWGQGATVTVSS
# VL: QSALTQPASVSGSPGQSITISCTGTSGNVGSHNLVSWYQQHPGEAPKLVISDINRRPSGVSNRFSGSKSGNTASLTISGLQAEDEADYFCCSYAGNSNVIFGGGTKLTVL
# How the values were obtained:
# [1] = target: T1, H5N1 HA (A/Vietnam/1194/2004) (Influenza A virus A/Vietnam/1194/2004 …, UniProt A5A5M5, strain)
# tetanus toxoid = tetanus toxoid (Clostridium tetani, production strain …, UniProt P04958)
# [2] = target: T2, H1N1 HA (A/California/04/2009) (Influenza A virus A/California/04/2009 …, UniProt C3W5S1, strain); experiment: ELISA
# T2 construct: source: bought: Sino Biological
# [3] = target: T3, H2N2 HA (A/Japan/305/1957) (Influenza A virus A/Japan/305/1957 …, UniProt P03451, strain); experiment: ELISA; conditions: one partner purified
# T3 construct: source: bought: Sino Biological
# [4] = target: T4, H3N2 HA (A/Perth/16/2009) (Influenza A virus A/Perth/16/2009 (H3N2), UniProt C6KNH7, strain); experiment: ELISA; conditions: one partner purified
# T4 construct: also called H3N2 hemagglutinin; source: bought: Sino Biological
# [5] = target: T1, H5N1 HA (A/Vietnam/1194/2004); experiment: ELISA; conditions: one partner purified
binder,measurement,setting,value
B1,binding result,[1],binds
B2,binding result,tetanus toxoid,binds
B3,binding result,[2],binds
B4,binding result,tetanus toxoid,binds
B5,binding result,tetanus toxoid,binds
B6,binding result,tetanus toxoid,binds
B7,binding result,[2]; one partner purified,binds
same,binding result,[3],binds
same,binding result,[4],binds
same,binding result,[5],binds
B8,binding result,tetanus toxoid,binds
B9,binding result,[2],binds
B10,binding result,tetanus toxoid,binds
